Experimental data as given in paper PMC2670497.

Tests used:
[1] = biological target: vimentin expressed from pCMV-SPORT6-vimentin in MFT-16 vim-/- cells (UniProt P08670); assay: flow cytometry on cells; cells transfected with pCMV-SPORT6-vimentin or mock-transfected, 24 hours later incubated with wildtype CPMV at 5x10^5 virions per cell for 2 hours; percent CPMV-positive cells; data not shown
[2] = biological target: surface vimentin on HeLa cells (human (endogenous in HeLa)) (UniProt P08670); assay: as above
[3] = biological target: purified recombinant vimentin protein (UniProt P08670); assay: ELISA; 1 ug vimentin immobilised overnight on Immulon 2 HB plates in 0.1 M KPO4 pH 7.0; varying molar concentrations of CPMV, 1 hour, room temperature; detected with anti-CPMV polyclonal antibody; avidity not ruled out

Cowpea mosaic virus (CPMV) particles, wild type (complex)
percent of cells CPMV-positive [1]: 1.21% | percent of cells CPMV-positive [2]: 5.36% | EC50 [3]: 3.72 nM
